# From article PMC11117311
# Legend:
# [1] = immunofluorescence, RBE cells; settings: glycan lost; control: FLAG-K18WT
# [2] = CHX chase 8 h, FLAG-K18 remaining by blot; settings: glycan lost; control: FLAG-K18-WT
# [3] = [U-13C6] glucose tracing, LC-MS/MS, HuCCT1; settings: glycan lost; control: shK18 + WT
# [4] = HA-ubiquitin, MG-132, anti-FLAG IP, anti-HA blot; settings: glycan lost; control: FLAG-K18-WT
# [5] = CHX chase up to 8 h, K18 remaining by blot; settings: glycan lost; control: DMSO
Protein,other: filament organisation [1],degradation_or_half_life [2],other: TCA cycle metabolite levels [3],other: ubiquitination [4],degradation_or_half_life [5]
Keratin 18 (K18): S30A (protein) parent chain: MSFTTRSTFSTNYRSLGSVQAPSYGARPVSSAASVYAGAGGSGSRISVSRSTSFRGGMGSGGLATGIAGGLAGMGGIQNEKETMQSLNDRLASYLDRVRSLETENRRLESKIREHLEKKGPQVRDWSHYFKIIEDLRAQIFANTVDNARIVLQIDNARLAADDFRVKYETELAMRQSVENDIHGLRKVIDDTNITRLQLETEIEALKEELLFMKKNHEEEVKGLQAQIASSGLTVEVDAPKSQDLAKIMADIRAQYDELARKNREELDKYWSQQIEESTTVVTTQSAEVGAAETTLTELRRTVQSLEIDLDSMRNLKASLENSLREVEARYALQMEQLNGILLHLESELAQTRAEGQRQAQEYEALLNIKVKLEAEIATYRRLLEDGEDFNLGDALDSSNSMQTIQKTTTRRIVDGKVVSETNDTKVLRH,changes,decreases,changes,increases,–
Keratin 18 (K18): 5S (Ac45SGlcNAc) (protein) parent chain: MSFTTRSTFSTNYRSLGSVQAPSYGARPVSSAASVYAGAGGSGSRISVSRSTSFRGGMGSGGLATGIAGGLAGMGGIQNEKETMQSLNDRLASYLDRVRSLETENRRLESKIREHLEKKGPQVRDWSHYFKIIEDLRAQIFANTVDNARIVLQIDNARLAADDFRVKYETELAMRQSVENDIHGLRKVIDDTNITRLQLETEIEALKEELLFMKKNHEEEVKGLQAQIASSGLTVEVDAPKSQDLAKIMADIRAQYDELARKNREELDKYWSQQIEESTTVVTTQSAEVGAAETTLTELRRTVQSLEIDLDSMRNLKASLENSLREVEARYALQMEQLNGILLHLESELAQTRAEGQRQAQEYEALLNIKVKLEAEIATYRRLLEDGEDFNLGDALDSSNSMQTIQKTTTRRIVDGKVVSETNDTKVLRH,–,–,–,–,decreases
